Test results taken from US20210032312A1 (Janssen / Centocor, published 2021).
Residue numbers refer to the chain shown, from its start.

B1: P283BR9P1363_F2 (designed binder)
chain: LPAPKNLVVSRVTEDSARLSWYRPDNRAGAFDSFLIQYQESEKVGEAIVLTVPGSERSYDLTGLKPGTEYTVSIYGVDVKYDIDSRPISSNPLSAIFTT
notes: FN3 domain
B2: P283HR7P1368_A10 (designed binder)
chain: LPAPKNLVVSRVTEDSARLSWTAPDAAFDSFWIFYLEPFPRGEAIPLEVPGSERSYDLTGLKPGTEYSVDIRGVKGGDHSDPLWAYFTT
notes: FN3 domain
B3: P283HR7P1368_D4 (designed binder)
chain: LPAPKNLVVSRVTEDSARLSWTAPDAAFDSFAIWCVEPIPEGEAIPLFVPGSERSYDLTGLKPGTEYRVGIRGVKGGTFSSPLAAPFTT
notes: FN3 domain
B4: P283ER9P1365_E2 (designed binder)
chain: LPAPKNLVVSRVTEDSARLSWTAPDAAFDSFYIPYRESEFRGEAIALPVPGSERSYDLTGLKPGTKYRVIIIGVKGGEFSQPLAAIFTT
notes: FN3 domain
B5: P283ER9P1365_A7 (designed binder)
chain: B4 chain with R36W, F40V, R41Y, K66E, R68Q, I70S, E78V, F79Y
notes: FN3 domain
B6: P283ER9P1365_C1 (designed binder)
chain: B4 chain with R36W, F40V, R41Y, P50T, K66E, R68Q, I70S, E78V, F79Y
notes: FN3 domain
B7: P283HR7P1368_F10 (designed binder)
chain: B4 chain with A84G
notes: FN3 domain
B8: P283ER9P1365_F4 (designed binder)
chain: B4 chain with R68S, A84G
notes: FN3 domain
B9: P283ER9P1365_G1 (designed binder)
chain: B4 chain with P48S, A84G
notes: FN3 domain
B10: P283ER9P1365_H3 (designed binder)
chain: B4 chain with A84S
notes: FN3 domain
B11: P283HR7P1368_F6 (designed binder)
chain: LPAPKNLVVSRVTEDSARLSWTAPDAAFDSFGIGYIEWVHRGEAISLHVPGSERSYDLTGLKPGTEYVVAIVGVKGGEPSTPLGAPFTT
notes: FN3 domain
B12: P283ER9P1365_A1 (designed binder)
chain: B11 chain with G34A, I36V, V39W, H48P, V68N, A70I, V72T, E78I, T81H, P86I
notes: FN3 domain
B13: P283HR7P1368_G10 (designed binder)
chain: B11 chain with G34A, I36V, V39W, H48P, V68W, A70T, V72L, E78I, P79I, P86S
notes: FN3 domain
B14: P283HR7P1368_D1 (designed binder)
chain: LPAPKNLVVSRVTEDSARLSWTAPDAAFDSFGISYYEWAPNGEAIQLSVPGSERSYDLTGLKPGTEYHVVIIGVKGGEPSHPLGAPFTT
notes: FN3 domain
B15: P283HR7P1368_B12 (designed binder)
chain: B14 chain with S34G, Y36V, W38F, A39T, P40R, N41A, Q46S
notes: FN3 domain
B16: P283HR7P1368_H1 (designed binder)
chain: B14 chain with S34A, Y36I, W38T, P40R, N41W, Q46S, S48T, H68N, E78T
notes: FN3 domain
B17: P283ER9P1365_G3 (designed binder)
chain: B14 chain with P86I
notes: FN3 domain
B18: P283HR7P1368_H8 (designed binder)
chain: LPAPKNLVVSRVTEDSARLSWTAPDAAFDSFGITYLDPRNGEAISLNVPGSERSYDLTGLKPGTEYWVVIIGVKGGINSYPLGASFTT
notes: FN3 domain
B19: P283HR7P1368_G11 (designed binder)
chain: LPAPKNLVVSRVTEDSARLSWTAPDAAFDSFGIGYAEPAVTGEAISLSVPGSERSYDLTGLKPGTEYWVVIIGVKGGINSYPLGASFTT
notes: FN3 domain
B20: P283HR7P1368_C3 (designed binder)
chain: B19 chain with E53K
notes: FN3 domain
B21: P283HR7P1368_D2 (designed binder)
chain: B19 chain with D29N
notes: FN3 domain
B22: P283ER9P1365_B6 (designed binder)
chain: B19 chain with A39V, S86I
notes: FN3 domain
B23: P283BR9P1363_G7 (designed binder)
chain: LPAPKNLVVSRVTEDSARLSWSAKKFPRHFDSFLIQYQESEKVGEAIVLTVPGSERSYDLTGLKPGTEYTVSIYGVDVKWEGNRPVASNPLSAIFTT
notes: FN3 domain
B24: P283BR9P1363_G2 (designed binder)
chain: B23 chain with S22P, A23K, K24N, K25Q, F26T, P27N
notes: FN3 domain
B25: P283BR9P1363_E6 (designed binder)
chain: B23 chain with S22Y, K24R, P27I, R28S, H29P
notes: FN3 domain
B26: P283BR9P1363_F4 (designed binder)
chain: B23 chain with S22E, A23R, K24I, K25V, F26Q, P27T, R28P
notes: FN3 domain
B27: P283BR9P1363_F6 (designed binder)
chain: LPAPKNLVVSRVTEDSARLSWPEEAVTATSFDSFLIQYQESEKVGEAIVLTVPGSERSYDLTGLKPGTEYTVSIYGVDVKWEGNRPVASNPLSAIFTT
notes: FN3 domain
B28: P283HR7P1368_G1 (designed binder)
chain: LPAPKNLVVSRVTEDSARLSWTAPDAAFDSFLITYWEIEPEGEAIFLGVPGSERSYDLTGLKPGTEYRVQINGVKGGTISYPLFAGFTT
notes: FN3 domain

target: T1, cynomolgus monkey CD8 alpha on primary cynomolgus CD8+ T cells (cynomolgus monkey, UniProt P01732 23-235 (human entry)); experiment: flow cytometry, cyno CD8+ T cells
T1 construct: also called Cyno CD8alpha; cyno CD8A
T1 sequence (P01732 other isoform, or with tags, fused parts or gaps limits assumed): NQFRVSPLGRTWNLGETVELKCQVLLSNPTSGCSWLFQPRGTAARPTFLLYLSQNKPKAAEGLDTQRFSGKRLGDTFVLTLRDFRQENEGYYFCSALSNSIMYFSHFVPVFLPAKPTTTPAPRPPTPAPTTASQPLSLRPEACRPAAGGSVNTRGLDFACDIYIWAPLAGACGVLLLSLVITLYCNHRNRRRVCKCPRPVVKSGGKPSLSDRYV

| Binder | Cyno T-cell Binding 0.2 uM (MFI) | Cyno T-cell Binding 2 uM (MFI) |
| --- | --- | --- |
| B1 | 5280 | 33300 |
| B2 | 4770 | 42300 |
| B3 | 23500 | 53000 |
| B4 | 1900 | 17200 |
| B5 | 2960 | 36600 |
| B6 | 1880 | 24000 |
| B7 | 1020 | 16100 |
| B8 | 2040 | 43200 |
| B9 | 383 | 489 |
| B10 | 436 | 19600 |
| B11 | 3540 | 20600 |
| B12 | 1360 | 9680 |
| B13 | 2660 | 23800 |
| B14 | 1410 | 7850 |
| B15 | 826 | 18600 |
| B16 | 1970 | 17300 |
| B17 | 1470 | 3480 |
| B18 | 4890 | 35900 |
| B19 | 1340 | 14900 |
| B20 | 1310 | 13300 |
| B21 | 950 | 11100 |
| B22 | 2690 | 30100 |
| B23 | 3020 | 7210 |
| B24 | 5380 | 15900 |
| B25 | 3720 | 16800 |
| B26 | 4480 | 20200 |
| B27 | 4570 | 31600 |
| B28 | 11600 | 69800 |

target: T2, human CD8A-Fc (in house) (human, UniProt P01732 22-182, limits assumed); experiment: SPR (ProteOn), captured hCD8A-Fc
T2 construct: captured by goat anti-human Fc on the ProteOn chip; also called hCD8A-Fc; recombinant human CD8 alpha; not shown: linker/tag and Fc of human IgG1
T2 sequence (P01732 22-182 limits assumed): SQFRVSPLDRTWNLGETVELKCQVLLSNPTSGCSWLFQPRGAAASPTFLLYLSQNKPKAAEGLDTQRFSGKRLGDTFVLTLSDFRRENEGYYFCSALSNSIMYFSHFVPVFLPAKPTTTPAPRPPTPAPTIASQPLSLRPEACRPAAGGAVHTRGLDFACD

| Binder | koff [s⁻¹] |
| --- | --- |
| B1 | 0.000288 |
| B2 | 0.000513 |
| B3 | 0.000235 |
| B4 | 0.000311 |
| B5 | 0.000786 |
| B6 | 0.00115 |
| B7 | 0.000165 |
| B8 | 0.000216 |
| B9 | 0.00367 |
| B10 | 0.000375 |
| B11 | 0.00018 |
| B12 | 0.000467 |
| B13 | 0.00145 |
| B14 | 0.00166 |
| B15 | 4.53e-05 |
| B16 | 0.000552 |
| B17 | 0.0025 |
| B18 | 0.000763 |
| B19 | 0.000373 |
| B20 | 0.000349 |
| B21 | 0.0013 |
| B22 | 0.000288 |
| B23 | 4.01e-05 |
| B24 | 0.000122 |
| B25 | 0.00136 |
| B26 | 0.000155 |
| B27 | 8.21e-05 |
| B28 | 0.00215 |

target: T3, human CD8 alpha (CD8A) on primary human CD8+ T cells (human, UniProt P01732 22-235); experiment: flow cytometry, human CD8+ T cells
T3 construct: whole, on cells; also called hCD8A
T3 sequence (P01732 22-235): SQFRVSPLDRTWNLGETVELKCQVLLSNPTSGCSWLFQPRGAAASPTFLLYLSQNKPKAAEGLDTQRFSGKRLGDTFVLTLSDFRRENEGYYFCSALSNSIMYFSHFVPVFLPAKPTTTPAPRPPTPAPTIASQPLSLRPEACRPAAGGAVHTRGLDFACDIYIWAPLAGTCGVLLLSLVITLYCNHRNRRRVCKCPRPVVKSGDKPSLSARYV

| Binder | Human T-cell Binding 0.2 uM (MFI) | Human T-cell Binding 2 uM (MFI) |
| --- | --- | --- |
| B1 | 3270 | 14500 |
| B2 | 3230 | 13600 |
| B3 | 6850 | 29000 |
| B4 | 2870 | 20000 |
| B5 | 1320 | 18500 |
| B6 | 644 | 8000 |
| B7 | 2660 | 18800 |
| B8 | 2600 | 24100 |
| B9 | 318 | 1280 |
| B10 | 953 | 18000 |
| B11 | 3510 | 14300 |
| B12 | 3860 | 25500 |
| B13 | 753 | 8120 |
| B14 | 2310 | 14100 |
| B15 | 1540 | 13400 |
| B16 | 2460 | 15400 |
| B17 | 2920 | 12500 |
| B18 | 1610 | 22800 |
| B19 | 2650 | 19300 |
| B20 | 2220 | 12700 |
| B21 | 1910 | 15200 |
| B22 | 3400 | 23000 |
| B23 | 2340 | 4640 |
| B24 | 3230 | 9640 |
| B25 | 2080 | 8240 |
| B26 | 2960 | 11900 |
| B27 | 3230 | 10600 |
| B28 | 4940 | 31300 |
